Experimental data published in IntAct's records for PubMed 26068854.

B1: Kinetochore protein NDC80 homolog (Homo sapiens), O14777 (parent)
chain: MKRSSVSSGGAGRLSMQELRSQDVNKQGLYTPQTKEKPTFGKLSINKPTSERKVSLFGKRTSGHGSRNSQLGIFSSSEKIKDPRPLNDKAFIQQCIRQLCEFLTENGYAHNVSMKSLQAPSVKDFLKIFTFLYGFLCPSYELPDTKFEEEVPRIFKDLGYPFALSKSSMYTVGAPHTWPHIVAALVWLIDCIKIHTAMKESSPLFDDGQPWGEETEDGIMHNKLFLDYTIKCYESFMSGADSFDEMNAELQSKLKDLFNVDAFKLESLEAKNRALNEQIARLEQEREKEPNRLESLRKLKASLQGDVQKYQAYMSNLESHSAILDQKLNGLNEEIARVELECETIKQENTRLQNIIDNQKYSVADIERINHERNELQQTINKLTKDLEAEQQKLWNEELKYARGKEAIETQLAEYHKLARKLKLIPKGAENSKGYDFEIKFNPEAGANCLVKYRAQVYVPLKELLNETEEEINKALNKKMGLEDTLEQLNAMITESKRSVRTLKEEVQKLDDLYQQKIKEAEEEDEKCASELESLEKHKHLLESTVNQGLSEAMNELDAVQREYQLVVQTTTEERRKVGNNLQRLLEMVATHVGSVEKHLEEQIAKVDREYEECMSEDLSENIKEIRDKYEKKATLIKSSEE
partner: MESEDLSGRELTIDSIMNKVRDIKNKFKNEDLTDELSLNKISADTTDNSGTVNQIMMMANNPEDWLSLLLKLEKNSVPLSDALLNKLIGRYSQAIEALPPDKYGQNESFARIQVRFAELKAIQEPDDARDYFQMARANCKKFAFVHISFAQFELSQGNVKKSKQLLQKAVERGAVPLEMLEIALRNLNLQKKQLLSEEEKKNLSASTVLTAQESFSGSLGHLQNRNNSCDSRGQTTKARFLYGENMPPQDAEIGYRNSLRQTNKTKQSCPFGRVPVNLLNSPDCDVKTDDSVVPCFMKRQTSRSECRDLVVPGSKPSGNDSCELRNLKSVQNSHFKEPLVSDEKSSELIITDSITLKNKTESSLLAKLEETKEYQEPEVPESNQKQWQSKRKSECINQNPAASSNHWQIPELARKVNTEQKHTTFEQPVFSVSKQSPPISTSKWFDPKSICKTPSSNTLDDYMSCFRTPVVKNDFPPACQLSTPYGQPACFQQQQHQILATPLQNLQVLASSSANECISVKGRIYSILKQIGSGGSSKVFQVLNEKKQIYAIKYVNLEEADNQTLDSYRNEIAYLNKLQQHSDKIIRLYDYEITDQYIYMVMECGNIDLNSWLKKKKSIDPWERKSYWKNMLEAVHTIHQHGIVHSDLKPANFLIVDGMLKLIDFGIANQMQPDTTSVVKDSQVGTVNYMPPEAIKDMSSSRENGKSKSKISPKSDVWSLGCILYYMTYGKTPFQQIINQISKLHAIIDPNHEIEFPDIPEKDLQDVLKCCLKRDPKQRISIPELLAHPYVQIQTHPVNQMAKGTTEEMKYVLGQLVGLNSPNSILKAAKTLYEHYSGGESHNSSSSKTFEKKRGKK
B2: Kinetochore protein Nuf2 (Homo sapiens), Q9BZD4 (parent)
chain: METLSFPRYNVAEIVIHIRNKILTGADGKNLTKNDLYPNPKPEVLHMIYMRALQIVYGIRLEHFYMMPVNSEVMYPHLMEGFLPFSNLVTHLDSFLPICRVNDFETADILCPKAKRTSRFLSGIINFIHFREACRETYMEFLWQYKSSADKMQQLNAAHQEALMKLERLDSVPVEEQEEFKQLSDGIQELQQSLNQDFHQKTIVLQEGNSQKKSNISEKTKRLNELKLSVVSLKEIQESLKTKIVDSPEKLKNYKEKMKDTVQKLKNARQEVVEKYEIYGDSVDCLPSCQLEVQLYQKKIQDLSDNREKLASILKESLNLEDQIESDESELKKLKTEENSFKRLMIVKKEKLATAQFKINKKHEDVKQYKRTVIEDCNKVQEKRGAVYERVTTINQEIQKIKLGIQQLKDAAEREKLKSQEIFLNLKTALEKYHDGIEKAAEDSYAKIDEKTAELKRKMFKMST
partner: B1 partner

Variants of: B1
Conditions: with TTK

| Variant | effect of a mutation on the interaction |
| --- | --- |
| K166E | decreasing interaction strength |
| K89E | decreasing interaction strength |
| K89E;K166E | decreasing interaction strength |

Variants of: B2
Conditions: with TTK

| Variant | effect of a mutation on the interaction |
| --- | --- |
| H129A | decreasing interaction strength |
| K115E | decreasing interaction strength |
| D103K | decreasing interaction strength |
| F6A;P7A | disrupting interaction strength |
| R116E | decreasing interaction strength |
| N126A | disrupting interaction strength |
